Laboratory results reported in publication PMC9584953.
Residue numbers refer to the chain shown, from its start.

Columns and labels:
Assay in all cases: EMSA
Conditions in all cases: EMSA: 50 mM Tris-HCl pH 7.5, 50 mM KCl, 5 mM CaCl2, 5% glycerol, 0.0025% NP-40, 0.8 ug poly(dI-dC), room temperature 30 min
[1] = test system: T1, OmpR Y230D Y230D (Salmonella (strain not given in material)), ORF:d8521a76
T1 sequence: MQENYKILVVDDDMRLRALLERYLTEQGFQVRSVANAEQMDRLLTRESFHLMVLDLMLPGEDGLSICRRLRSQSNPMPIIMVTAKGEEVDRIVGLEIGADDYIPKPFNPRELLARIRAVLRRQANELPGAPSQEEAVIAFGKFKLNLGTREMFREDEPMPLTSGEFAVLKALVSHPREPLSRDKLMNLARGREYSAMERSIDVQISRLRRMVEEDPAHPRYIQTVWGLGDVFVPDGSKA

[2] = test system: T2, OmpR I138D I138D (Salmonella (strain not given in material)), ORF:d8521a76
T2 sequence: T1 sequence with I138D, D230Y

[3] = test system: T3, OmpR A136D A136D (Salmonella (strain not given in material)), ORF:d8521a76
T3 sequence: T1 sequence with A136D, D230Y

[4] = test system: T4, OmpR D55A D55A (Salmonella (strain not given in material)), ORF:d8521a76
T4 sequence: T1 sequence with D55A, D230Y

[5] = test system: T5, OmpR R182D R182D (Salmonella (strain not given in material)), ORF:d8521a76
T5 sequence: T1 sequence with R182D, D230Y

Sequence: CATCTTTCCATTCAAACTAACGTTTCGCTACCGTGAAAGTGCTACAAAGATAAAGATTTGGTTTCAAAAGGAAAT (double strand) [PompF (F2 and F3 OmpR sites)]
- binding [1]: binds
- binding [2]: binds
- binding [3]: binds
- binding [4]: binds more weakly
- binding [5]: binds
